*1 amine or outer side, *2 acyl side, *3 side chain or, on linkers, in order; H or OH if unused. Where a SMILES comes first, the peptide text is derived from it. Where no end group is shown, it is not given here. Side-chain parts run from the residue outwards. [ ]: non-standard residue; d: D form. The star is where a group is joined. X1 = O=C(O)CCCCCCCCCCCCCCCCCCC(=O)NCC1CCC(C(=O)*)CC1; C20 diacid = O=C(O)CCCCCCCCCCCCCCCCCCC(=O)*; γGlu = O=C(O)[C@H](CCC(=O)[*:2])N[*:1]; εLys = N[C@@H](CCCCN[*:1])C(=O)[*:2]; AEEA = NCCOCCOCC(=O)O; Aib = CC(C)(N)C(=O)O

For experiment [1], the target named is T1, human GLP-1 receptor (Homo sapiens, UniProt P43220).
T1 construct: expressed in transfected cells; host or cells: BHK cells (parent line BHKTS13) containing CRE luciferase
The experiment is described as follows: In vitro functional potency (CRE luciferase; whole cells), human GLP-1R. It is filed as cell-based. Conditions: BHK CRE luc2P hGLP-1R whole cells; Table 2; read-out: hGLP-1R CRE Luc EC50.

Experiment [2] deals with human glucagon receptor (human, UniProt P47871 26-477). Put plainly: cell-based or functional assay.
The target of experiment [3] is human glucagon-like peptide 1 receptor (human, UniProt P43220 24-463). The experiment is described as follows: cell-based or functional assay.
For experiment [4], the target named is T2, human glucose-dependent insulinotropic polypeptide receptor (human, UniProt P48546 22-466).
T2 sequence (looked up): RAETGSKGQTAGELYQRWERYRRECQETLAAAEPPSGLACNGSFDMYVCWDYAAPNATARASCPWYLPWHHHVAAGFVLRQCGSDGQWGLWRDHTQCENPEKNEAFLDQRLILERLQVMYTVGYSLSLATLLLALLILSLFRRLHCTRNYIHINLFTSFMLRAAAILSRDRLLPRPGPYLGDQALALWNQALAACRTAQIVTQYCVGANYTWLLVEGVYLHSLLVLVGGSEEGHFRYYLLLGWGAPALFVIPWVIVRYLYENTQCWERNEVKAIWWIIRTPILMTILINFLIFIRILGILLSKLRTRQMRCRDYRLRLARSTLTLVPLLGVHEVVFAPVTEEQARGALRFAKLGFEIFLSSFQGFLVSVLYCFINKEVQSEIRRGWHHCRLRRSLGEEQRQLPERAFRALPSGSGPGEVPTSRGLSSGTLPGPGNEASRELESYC
The experiment is described as follows: cell-based or functional assay.

Chain of human glucagon receptor (P47871 26-477): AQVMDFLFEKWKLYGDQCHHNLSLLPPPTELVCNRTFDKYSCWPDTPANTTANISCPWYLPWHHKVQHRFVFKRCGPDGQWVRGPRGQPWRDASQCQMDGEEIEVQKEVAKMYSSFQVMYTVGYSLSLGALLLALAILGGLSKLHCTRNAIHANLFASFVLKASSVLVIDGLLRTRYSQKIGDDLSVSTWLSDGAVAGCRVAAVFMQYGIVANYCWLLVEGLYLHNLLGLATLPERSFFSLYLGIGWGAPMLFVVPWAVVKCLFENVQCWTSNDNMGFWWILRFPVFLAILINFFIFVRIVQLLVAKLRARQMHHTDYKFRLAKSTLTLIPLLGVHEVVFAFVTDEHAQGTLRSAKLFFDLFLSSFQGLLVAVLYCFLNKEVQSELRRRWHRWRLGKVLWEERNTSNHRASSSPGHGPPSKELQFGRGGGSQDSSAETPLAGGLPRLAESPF
T1 sequence (P43220 24-463): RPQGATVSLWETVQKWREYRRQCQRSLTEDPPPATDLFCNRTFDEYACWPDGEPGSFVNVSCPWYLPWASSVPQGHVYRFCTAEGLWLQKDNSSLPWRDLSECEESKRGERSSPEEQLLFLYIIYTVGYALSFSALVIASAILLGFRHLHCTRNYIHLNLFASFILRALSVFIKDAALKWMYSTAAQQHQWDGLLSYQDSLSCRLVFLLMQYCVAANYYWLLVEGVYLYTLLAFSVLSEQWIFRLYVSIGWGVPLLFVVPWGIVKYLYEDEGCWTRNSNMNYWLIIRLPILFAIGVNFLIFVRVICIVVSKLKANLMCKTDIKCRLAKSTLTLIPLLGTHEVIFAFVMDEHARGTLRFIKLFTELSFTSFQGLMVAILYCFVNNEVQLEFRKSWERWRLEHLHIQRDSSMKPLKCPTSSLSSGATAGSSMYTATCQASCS

A word on the EC50: it is the midpoint of the concentration-response curve. In the case of `CC[C@H](C)[C@H](NC(=O)[C@H](CO)NC(=O)[C@H](Cc1ccc(O)cc1)NC(=O)[C@H](CC(=O)O)NC(=O)[C@H](CO)NC(=O)[C@@H](NC(=O)[C@H](Cc1ccccc1)NC(=O)[C@@H](NC(=O)CNC(=O)[C@H](CCC(N)=O)NC(=O)C(C)(C)NC(=O)[C@@H](N)Cc1ccc(O)cc1)[C@@H](C)O)[C@@H](C)O)C(=O)N[C@@H](Cc1ccc(O)cc1)C(=O)N[C@@H](CC(C)C)C(=O)N[C@@H](CCC(=O)O)C(=O)N[C@@H](CCCCNC(=O)[C@@H](N)CCCCNC(=O)[C@@H](N)CCCCNC(=O)CC[C@H](NC(=O)CCCCCCCCCCCCCCCCCCC(=O)O)C(=O)O)C(=O)N[C@@H](CCC(N)=O)C(=O)N[C@@H](C)C(=O)N[C@@H](C)C(=O)NC(C)(C)C(=O)N[C@@H](CCC(=O)O)C(=O)N[C@@H](Cc1ccccc1)C(=O)N[C@H](C(=O)N[C@@H](CCC(N)=O)C(=O)N[C@@H](Cc1c[nH]c2ccccc12)C(=O)N[C@@H](CC(C)C)C(=O)N[C@@H](CC(C)C)C(=O)N[C@@H](CCC(=O)O)C(=O)NCC(=O)NCC(=O)N1CCC[C@H]1C(=O)N[C@@H](CO)C(=O)N[C@@H](CO)C(=O)NCC(=O)N[C@@H](C)C(=O)N1CCC[C@H]1C(=O)N1CCC[C@H]1C(=O)N1CCC[C@H]1C(=O)N[C@@H](CO)C(N)=O)C(C)C` [Compound No. 17] (H-Y[Aib]QGTFTSDYSIYLEK([εLys-εLys-γGlu-C20 diacid])QAA[Aib]EFVQWLLEGGPSSGAPPPS-NH2), the EC50 in experiment [1] stood at 2.8 pM. As for `CC[C@H](C)[C@H](NC(=O)[C@H](CO)NC(=O)[C@H](Cc1ccc(O)cc1)NC(=O)[C@H](CC(=O)O)NC(=O)[C@H](CO)NC(=O)[C@@H](NC(=O)[C@H](Cc1ccccc1)NC(=O)[C@@H](NC(=O)CNC(=O)[C@H](CCC(N)=O)NC(=O)C(C)(C)NC(=O)[C@@H](N)Cc1ccc(O)cc1)[C@@H](C)O)[C@@H](C)O)C(=O)N[C@@H](Cc1ccc(O)cc1)C(=O)N[C@@H](CC(C)C)C(=O)N[C@@H](CCC(=O)O)C(=O)N[C@@H](CCCCN)C(=O)N[C@@H](CCC(N)=O)C(=O)N[C@@H](C)C(=O)N[C@@H](C)C(=O)NC(C)(C)C(=O)N[C@@H](CCCCNC(=O)COCCOCCNC(=O)COCCOCCNC(=O)CC[C@H](NC(=O)C1CCC(CNC(=O)CCCCCCCCCCCCCCCCCCC(=O)O)CC1)C(=O)O)C(=O)N[C@@H](Cc1ccccc1)C(=O)N[C@H](C(=O)N[C@@H](CCC(N)=O)C(=O)N[C@@H](Cc1c[nH]c2ccccc12)C(=O)N[C@@H](CC(C)C)C(=O)N[C@@H](CC(C)C)C(=O)N[C@@H](CCC(=O)O)C(=O)NCC(=O)NCC(=O)N1CCC[C@H]1C(=O)N[C@@H](CO)C(=O)N[C@@H](CO)C(=O)NCC(=O)N[C@@H](C)C(=O)N1CCC[C@H]1C(=O)N1CCC[C@H]1C(=O)N1CCC[C@H]1C(=O)N[C@@H](CO)C(N)=O)C(C)C` (stereo partly shown) [Compound No. 11] (H-Y[Aib]QGTFTSDYSIYLEKQAA[Aib]K([AEEA-AEEA-γGlu-X1])FVQWLLEGGPSSGAPPPS-NH2; N-terminus assumed), the EC50 in experiment [1] is 4.3 pM. Take `CC[C@H](C)[C@H](NC(=O)[C@H](CO)NC(=O)[C@H](Cc1ccc(O)cc1)NC(=O)[C@H](CC(=O)O)NC(=O)[C@H](CO)NC(=O)[C@@H](NC(=O)[C@H](Cc1ccccc1)NC(=O)[C@@H](NC(=O)CNC(=O)[C@H](Cc1c[nH]cn1)NC(=O)C(C)(C)NC(=O)[C@@H](N)Cc1c[nH]cn1)[C@@H](C)O)[C@@H](C)O)C(=O)N[C@@H](Cc1ccc(O)cc1)C(=O)N[C@@H](CC(C)C)C(=O)N[C@@H](CCC(=O)O)C(=O)N[C@@H](CCCCNC(=O)[C@@H](N)CCCCNC(=O)[C@@H](N)CCCCNC(=O)CC[C@H](NC(=O)CCCCCCCCCCCCCCCCCCC(=O)O)C(=O)O)C(=O)N[C@@H](CCCNC(=N)N)C(=O)N[C@@H](C)C(=O)N[C@@H](C)C(=O)NC(C)(C)C(=O)N[C@@H](CCC(=O)O)C(=O)N[C@@H](Cc1ccccc1)C(=O)N[C@H](C(=O)N[C@@H](CCC(N)=O)C(=O)N[C@@H](Cc1c[nH]c2ccccc12)C(=O)N[C@@H](CC(C)C)C(=O)N[C@@H](CC(C)C)C(=O)N[C@@H](CCC(=O)O)C(=O)NCC(=O)NCC(=O)N1CCC[C@H]1C(=O)N[C@@H](CO)C(=O)N[C@@H](CO)C(=O)NCC(=O)N[C@@H](C)C(=O)N1CCC[C@H]1C(=O)N1CCC[C@H]1C(=O)N1CCC[C@H]1C(=O)N[C@@H](CO)C(N)=O)C(C)C` [Compound No. 37] (H-H[Aib]HGTFTSDYSIYLEK([εLys-εLys-γGlu-C20 diacid])RAA[Aib]EFVQWLLEGGPSSGAPPPS-NH2; N-terminus assumed): the EC50 in experiment [1] was 1.8 pM.

In the case of `CC[C@H](C)[C@H](NC(=O)[C@H](CO)NC(=O)[C@H](Cc1ccc(O)cc1)NC(=O)[C@H](CC(=O)O)NC(=O)[C@H](CO)NC(=O)[C@@H](NC(=O)[C@H](Cc1ccccc1)NC(=O)[C@@H](NC(=O)CNC(=O)[C@H](Cc1c[nH]cn1)NC(=O)C(C)(C)NC(=O)[C@@H](N)Cc1c[nH]cn1)[C@@H](C)O)[C@@H](C)O)C(=O)N[C@@H](CC(C)C)C(=O)N[C@@H](CC(C)C)C(=O)N[C@@H](CCC(=O)O)C(=O)N[C@@H](CCCCNC(=O)[C@@H](N)CCCCNC(=O)[C@@H](N)CCCCNC(=O)CC[C@H](NC(=O)CCCCCCCCCCCCCCCCCCC(=O)O)C(=O)O)C(=O)N[C@@H](CCC(N)=O)C(=O)N[C@@H](C)C(=O)N[C@@H](C)C(=O)N[C@@H](CCCNC(=N)N)C(=O)N[C@@H](CCC(=O)O)C(=O)N[C@@H](Cc1ccccc1)C(=O)N[C@H](C(=O)N[C@@H](CCC(N)=O)C(=O)N[C@@H](Cc1c[nH]c2ccccc12)C(=O)N[C@@H](CC(C)C)C(=O)N[C@@H](CC(C)C)C(=O)N[C@@H](CCC(=O)O)C(=O)NCC(=O)NCC(=O)N1CCC[C@H]1C(=O)N[C@@H](CO)C(=O)N[C@@H](CO)C(=O)NCC(=O)N[C@@H](C)C(=O)N1CCC[C@H]1C(=O)N1CCC[C@H]1C(=O)N1CCC[C@H]1C(=O)N[C@@H](CO)C(=O)O)C(C)C` [Compound No. 55] (H-H[Aib]HGTFTSDYSILLEK([εLys-εLys-γGlu-C20 diacid])QAAREFVQWLLEGGPSSGAPPPS-OH; N-terminus assumed), the EC50 in experiment [1] is 2 pM.

B1: Compound No. 16 (peptide)
peptide: Y[Aib]QGTFTSDYSIYLEKQAA[Aib]EFVQWLLEGGPSSGAPPPS-NH2
modifications: not fully specified (residue 16); printed as Y-Aib-QGTFTSDYSIYLE-K[2-[2-[2-[[2-[2-[2-[[(4S)-4-carboxy-4-(19-carboxynonadecanoylamino)butanoyl]amino]ethoxy]ethoxy]acetyl]amino]ethoxy]ethoxy]acetyl]-QAA-Aib-EFVQWLLEGGPSSGAPPPS-NH2
Take B1: the “hGcgR CRE Luc EC50 (pM)” value in experiment [2] was 185 pM. Also, the “hGLP-1R CRE Luc EC50 (pM)” value in experiment [3] turned out to be 3.1 pM. Besides, the “hGIPR CRE Luc EC50 (pM)” value in experiment [4] was 11.4 pM.

Take Y[Aib]QGTFTSDYSIYLEKQAA[Aib]EFVQWLLEGGPSSGAPPPS-NH2 (not fully specified (residue 16)) [Compound No. 17]: the “hGcgR CRE Luc EC50 (pM)” value in experiment [2] was determined as 86.6 pM. Moreover, in experiment [3], the “hGLP-1R CRE Luc EC50 (pM)” value was found to be 2.8 pM. The “hGIPR CRE Luc EC50 (pM)” value in experiment [4] worked out at 7 pM.

B2: Compound No. 18 (peptide)
peptide: Y[Aib]HGTFTSDYSIYLEKQAA[Aib]EFVQWLLEGGPSSGAPPPS-NH2
modifications: not fully specified (residue 16); printed as Y-Aib-HGTFTSDYSIYLE-K[(2S)-2-amino-6-[[(2S)-2-amino-6-[[(4S)-4-carboxy-4-(19-carboxynonadecanoylamino)butanoyl]amino]hexanoyl]amino]hexanoyl]-QAA-Aib-EFVQWLLEGGPSSGAPPPS-NH2
Regarding B2, the “hGcgR CRE Luc EC50 (pM)” value in experiment [2] came out at 72.1 pM. The “hGLP-1R CRE Luc EC50 (pM)” value in experiment [3] is 106 pM. For the same molecule, the “hGIPR CRE Luc EC50 (pM)” value in experiment [4] was 7.1 pM.

The values above are taken from patent US20230391845A1, “GLP-1, GIP AND GLUCAGON RECEPTOR TRIPLE AGONISTS” (priority 2020, published 2023).
